Molecular target: thrombin (UniProt P00734;P00734 328-363;364-622)
Assay: fluorescence turn-on (FRET Pdots to BHQ-aptamer); 130 nM thrombin, Pdots present; F/F0 = 6.5; Buffer, salt and pH not given in the material (Hepes listed as reagent); incubation 60 min; Pdots-BHQ-TBA quenching plot at 298 K

GGTTGGTGTGGTTGG (ssDNA) [BHQ-TBA (BHQ-labelled thrombin aptamer)]
binding result: binds

Source: PMC5855441, “Detection of Thrombin Based on Fluorescence Energy Transfer between Semiconducting Polymer Dots and BHQ-Labelled Aptamers”
